The source of these data is paper PMC3179519.

For the test, the target named is Salmonella SJW1660 flagellin capable of forming L-type straight filaments (Salmonella (S. typhimurium)) (UniProt P06179). The test can be described thus: co-sedimentation; monomers of SJW1660 flagellin and FliC(XynA) mixed at 1:1 to 1:5 (w/w) in 20 mM Tris-HCl, 150 mM NaCl (pH 7.8), polymerized with ammonium sulfate (0.4-0.6 M), 2 days at room temperature; centrifuged, pellet dissolved in buffer without AS, SDS-PAGE with densitometry; filaments also seen by dark-field microscopy and AFM.

On to “FliC(XynA) fusion protein (flagellin-xylanase A chimera) (from UniProt P18429 29-213)”, for which the band intensity of FliC(XynA) in the copolymer pellet, 1:1 mixing ratio (FliC band 49.3) stood at 49.6 and the band intensity of FliC(XynA) in the copolymer pellet, 1:2 mixing ratio (FliC band 50.7) came to 34.2.
